Data set [1] has as its target BRD3 peptide containing the main SPOP-binding motif of BRD3. Briefly: fluorescence polarisation.
The target of data set [2] is T1, Speckle-type POZ protein (SPOP), full-length, wild type (human), O43791.
T1 chain: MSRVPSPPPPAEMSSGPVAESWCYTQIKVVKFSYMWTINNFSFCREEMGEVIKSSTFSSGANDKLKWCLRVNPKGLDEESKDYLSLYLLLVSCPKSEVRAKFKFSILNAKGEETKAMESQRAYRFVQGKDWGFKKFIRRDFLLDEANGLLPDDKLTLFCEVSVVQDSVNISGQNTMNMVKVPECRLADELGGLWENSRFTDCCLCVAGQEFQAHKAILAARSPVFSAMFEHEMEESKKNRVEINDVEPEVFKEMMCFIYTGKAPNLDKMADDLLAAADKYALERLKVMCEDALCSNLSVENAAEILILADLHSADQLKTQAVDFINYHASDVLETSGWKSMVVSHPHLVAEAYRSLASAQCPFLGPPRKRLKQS
As to the kind of experiment: cryo-EM structure. Conditions: remark: other sources report otherwise.

Data set [3] deals with the molecule itself. As to the kind of experiment: negative-stain TEM.

Numbering of substitutions follows the chain as printed. Names and notes keep the numbering of the source. Values joined by “and” are separate entries in the source; they are usually repeats but may differ in a detail not shown here. Equal entries are not always repeated.

Consider “SPOP K134N, full-length (from UniProt O43791 1-374) (natural protein)”, for which the fold weaker binding than full-length WT in data set [1] came out at 11 fold.

“SPOP MATH domain K134N (from UniProt O43791 31-161) (domain or fragment)” displayed a fold weaker binding than the WT MATH domain in data set [1] of 4 fold.

B1: Speckle-type POZ protein (SPOP), full-length, wild type, O43791 1-374 (natural protein)
chain: T1 chain
As a reminder, the stoichiometry N is the number of molecules, sites or subunits per partner or assembly. Turning to B1, in data set [2], the stoichiometry N is 48 monomers and 56 monomers.

B2: SPOP W131L (natural protein)
chain: T1 chain with W131L
Regarding B2, the binding result in data set [3] is on record as “binds”.

B3: SPOP M48I (natural protein)
chain: T1 chain with M48I
On to B3, for which the binding result in data set [3] was “binds”.

B4: SPOP E47A (natural protein)
chain: T1 chain with E47A
With B4, the binding result in data set [3] is recorded as “binds”.

B5: SPOP E47Q (natural protein)
chain: T1 chain with E47Q
On to B5, for which the binding result in data set [3] was “binds”.

B6: SPOP K129E (natural protein)
chain: T1 chain with K129E
With B6, the binding result in data set [3] is on record as “binds”.

B7: SPOP K134N, full-length (natural protein)
chain: T1 chain with K134N
Turning to B7, in data set [3], the binding result is recorded as “binds”.

B8: SPOP R121Q (natural protein)
chain: T1 chain with R121Q
With B8, in data set [3], the binding result was “binds”.

B9: SPOP Y87F (natural protein)
chain: T1 chain with Y87F
For the molecule B9, the binding result in data set [3] was “binds”.

B10: SPOP R70L (natural protein)
chain: T1 chain with R70L
For the molecule B10, in data set [3], the binding result was “binds”.

B11: SPOP R221C (natural protein)
chain: T1 chain with R221C
With B11, the binding result in data set [3] is “binds”.

B12: SPOP G128S (natural protein)
chain: T1 chain with G128S
With B12, the binding result in data set [3] is “binds”.

B13: SPOP D140N (natural protein)
chain: T1 chain with D140N
Regarding B13, in data set [3], the binding result is reported as “binds”.

B14: SPOP G128D, full-length (natural protein)
chain: T1 chain with G128D
For B14, the binding result in data set [3] is recorded as “binds”.

B15: SPOP S96R, full-length (natural protein)
chain: T1 chain with S96R
For B15, the binding result in data set [3] is “binds”.

B16: SPOP R45W (natural protein)
chain: T1 chain with R45W
B16: the binding result in data set [3] was “binds”.

B17: SPOP E50K (natural protein)
chain: T1 chain with E50K
With B17, in data set [3], the binding result was “binds”.

B18: SPOP R99W (natural protein)
chain: T1 chain with R99W
Regarding B18, the binding result in data set [3] was “binds”.

B19: SPOP M117V (natural protein)
chain: T1 chain with M117V
Turning to B19, in data set [3], the binding result was “binds”.

B20: SPOP D130E (natural protein)
chain: T1 chain with D130E
Consider B20, for which the binding result in data set [3] is listed as “binds”.

B21: SPOP E47K, full-length (natural protein)
chain: T1 chain with E47K
Turning to B21, the binding result in data set [3] is on record as “binds”.

B22: SPOP D77E, full-length (natural protein)
chain: T1 chain with D77E
In the case of B22, the binding result in data set [3] was “binds”.

B23: SPOP E78K, full-length (natural protein)
chain: T1 chain with E78K
In the case of B23, the binding result in data set [3] is “binds”.

B24: SPOP W131G (natural protein)
chain: T1 chain with W131G
B24: in data set [3], the binding result is on record as “binds”.

B25: SPOP V51E, full-length (natural protein)
chain: T1 chain with V51E
As for B25, the binding result in data set [3] is listed as “binds”.
